Laboratory results taken from the supplement of paper PMC12636428.

System: Saccharomyces cerevisiae
Experiment: transcriptional activation domain activity (GFP:mCherry ratio, weighted mean of sorted bins, harmonized to initial dataset scale) (arbitrary fluorescence ratio units); higher = stronger transcriptional activation
Details: beta-estradiol 1 µM; induction time 4 h
In short: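 The activation activity of each tile is the read-weighted mean of bin median fluorescence, averaged across its barcodes and mapped linearly onto the scale of the initial dataset. Tiles were fused to an estradiol-inducible synthetic transcription factor, barcoded, and integrated at URA3 in yeast diploids carrying a GFP reporter. Induction used 1 uM beta-estradiol in SC for 4 hours at 30 °C, after which cells were sorted into 8 GFP:mCherry bins, and any tile with fewer than 50 reads was dropped.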

| Sequence | transcriptional activation domain activity |
| --- | --- |
| IFVSLLDYLATWISDDQIKCWPLNFVSRMFFYMLYFVFYRTILLFLTIEEIAV | 55200 |
| FRLAFMLICVDVFLALFHILDYVLYIPSRVCTFSAWGTLTCELMTIFLNVTIA | 52500 |
| LLVLLLVLLLVLLLILLLILLILLVYLLLLLLLVLLFFLLLLLLLFTFILHFL | 46200 |
| AEPSIYSNLFLDARLPNNANSTTGLNDNDYNLDDTNNDNTNSMQSILEDFVSS | 75100 |
| RRKRRRRGGEDEQQAEVEDNDRHRSSRHHRRRRRETSEEKSPRRRATDRRRHP | 34600 |
| FSLGTVLLALCRYLPFGTILQIYVLFLRVESPLCVNGYRAIAFPVVCLWVLLV | 52600 |
| EPKKAKIGAPKRKKKEVIEDAEAGAGAETEEGEAPPKKKRGGRKAKPAKEEPV | 15600 |
| NILKLPSMVDGSQHCDISKFIVAAAHKIVTPDVSPRGWVLLKLLRSYIELDMY | 29100 |
| GGSKRDREDSRKGGKTSSRGGRLTEDGPSSSHTKKPRKGKKGEEAKEGGEKSS | 25100 |
| KSDAAAQVPSRGQKRDRDGDEEGSDAEAGVPGTPIRSSRKTKKRGKKSKEPRE | 50200 |
| MRQCCRCGDALKRCVILAVIAFGSVPPVYVGLVACARCRVWLFSPGLLYLKWF | 55500 |
| MVFFTSSFLLGFFSFVSFRNHCSFFLMAPFLTGSELFLFFVLLFILFFFLALA | 64900 |
| DGWGDGGLRAGALEEVQRRAEEMRGRLRLDEEARLYFSRSGNRLVRVVIILVG | 7180 |
| RQLFIRGRMQTIMLDCFLELCYRGACSLSSFEHPINWFEAPSDCLIWIRRMMY | 36600 |
| RQESSPRLPSPSHTQQRERNQTPCAARSSSSSPRRPRPQPQPSTSAPSSPASP | 29400 |
| PFLLYTSGFLFMGATEEQMNLLTSAGVSHVSYILLLYSISFLLFLFVCMLLHL | 33400 |
| MPTVRCLLPFVLFTGLLYRILLSLSFLLVLPFLILLFSSPSLLSCFLLLAYIL | 57000 |
| GPSAEATPPSTEVKKKRQYRKRQITAEGGEAENGEASSAVPKPKRVRKKKDPP | 38300 |
| MLFSTFFHFMILLCFLLLLCFFYFYDFTYLYGPPMIFYFYYFSLCLYLNKLQF | 41600 |
| ALKALSFARLLVIAVLMDSFLFVFTSAILVIGIGTSFNQIACQVGIWWCIFLY | 58400 |
| ERGTGGQGRRAEEEEAQGGDGGHKTKERGRDEEAGAGGGPAEAGAGAGAKGRT | 28600 |

| Sequence | transcriptional activation domain activity |
| --- | --- |
| KLLNYLQMDRAKVVSFTIFVFVWSYFRHYLNLVILWSVWTQYDLIPQFARRWV | 40000 |
| DTMIRLFVGWLEEDPSSDRVLPRVHLGEIGIPVKLDLSSPSAVLVVSRLLCSL | 74100 |
| MMKKKNWSYVVFWRGLPFFFFFFFFFFGEHFVLIFTSFVLFLLSLLCAGCVWV | 25000 |
| MVLFLFCLITFACSRTWVMAFLLIWVSSFFLFILFFFSFFSYYAFRVLPLCYS | 46300 |
| TIITNRGTIPNGLGRDIWTLQPDMITSFAYWFYHMEYAYFLNLVLLKASILFF | 57800 |
| YLIILILFCFCHLWELDRWAHSLASQEKLRYSCVIGLTIFRLRCPLSLTKDAP | 48900 |
| EEPVPKKRGRGRPPKNPAAKAKAAAAAAAAKKAERLPKVRVHKAHTPLRENIH | < 6570 |
| LFYLLLLYYYYYCTILYILLHIHYIYIIYLFFLFVYSIYLFFFYILLFIIYYS | 52300 |
| SKSRSSSSSSSSSSSSSSSSSSSESEKSHSKHKSKSKSKSKARKSKSKSKHRG | 18100 |
| SEVKYFWSYYNHVCFLVIPIDDNGLSIFFSCFTGESVEIILSIICVAMTQVLT | 35200 |
| VFVPIPGLRNRRVHILLPNLYLLHQITFFRFSRRRSTLVLLLVCVSIVFAMYA | 36500 |
| VVLASSPSSQTTSSTSVVLIFGSDDKRVKEVGEGLKAKLDMRGGGKGTRWSGK | 14200 |
| QAAQESDEESEAPNPTAKTLSKRAAEAWKQLSASDKDKYKVLADKEREEHARL | 28800 |
| ERDMELLVGHFDFMAKEAFLADSISLCSTEEELERRLDTPVIQEDSPVMDNNT | 62900 |
| SRLLHLLLVTLGLLVVLLYSFFPSPDVFVLSPLRSPLFLLFSPSFFFCLFCLF | 75400 |
| SREQPPSGQSRETLQKRVLHVRSVGRVTKGGKIRSASAIVVVGNGNGIGGYGE | 38900 |
| MRDIIGISIFLFFSLFLFYLSFCFCMRNVNLSFSLFILTLIDCLTDLLIMVPI | 60300 |
| RAAAVRGAAQEPQPESRGTSATPARKTAKTEGEEKPAKKRRTAGGDKANKRSK | 9380 |
| ILFCSWLSFRQLFFLFICNTHHWVFEDYFCHFSFFLSLFLMAITWKCFFFFFF | 38900 |
| KNASFNDADLLSSSYWIKAYNDHLFSVSESDETSPMNSELNDTKLIVPDFKST | 69100 |
| MHAFQAGRDMPLVRRRSGGCLESDGGGEERVLRCETEECMSKEGVVSVGAGAD | 35500 |

| Sequence | transcriptional activation domain activity |
| --- | --- |
| MLLNLRGHIDEHLQYIIATSFKLMDTAETFALRLANLEVLINTVLYNAAAALH | 48600 |
| MTLVVMMILPPLASLDCFLLSFFFSLLLSPTFPLVLFFSVYKFFHFSTFPFFV | 54800 |
| MYCMRYFVPLLLLPFPDAPPVFVILFLISFFLHQKPCIYCTLLLIALFCSTCY | 72300 |
| MRKFLFQSFDILYLLIFLSFFFILSLFFFILIIFGSSPFIYFIFYFNHFFFFD | 26900 |
| FNIVAFGIIILDFWGMIGIWTQKFGFHHVWEVWLYQVYYGLFVCPWYSYSQIM | 80200 |
| GEDSTRSAKKPTNKRKKASTAGDEGRETKARKTAKGRAGTRVRKGRGAKTSSS | 20500 |
| MFLSTVMTRSICTFIFVEFELHGDAKSLCCGGLCRFCRLCSKVGVNYYSPCWW | 73000 |
| GTAIEGLVIRFYIRKYEDSNNNNLEQNKTGQVRVSSPRAYLRIVGYTWVLAWF | 38700 |
| QDNLNIEDKEEMSPNIEIKNEQNMTDSNDILGVFDQLDAQLFGKYLPLNYPSE | 81700 |
| EWMKVVYGFDQKPIPSGACSGSIAKIFGTNTSAFELLVLKRRIMGPCWIQIKK | 55800 |
| MYRLQCGVIYSLYVMCFMLLQMLLCVCVVSESFFFFLFLALIVWSPVYIILRV | 41900 |
| TASSGTRATTTSSAPRSRRTHTTPLRAAQARAPRCRTARARTSCGSTPTARRS | 23800 |
| MAIQAFFVICIIKILLYFLFFFFLFLSLLLYTYMYIHICAYVFYKIEKHVKSM | 51000 |
| EDKAAEDGAAKKPKTTELPGGVKIQDMKVGSGPQAKPGKKIGMRYIGKLQGSN | 30600 |
| GRNKRREKRPEEETTRQRRKGKREEQERRRTTKAGTKAEKRGEERRASGDANE | 23100 |
| PIYNLHFAPSNEYWFSFSYLPGQGQCTLDSSTTSIGQTRYFIWSLSLWRRIFL | 70200 |
| NRKTIGKQDPYCAARLGKEAKKTETDRRGGQTPRWDQELRYTVHDSPDYYQLK | 31200 |
| DREAKEDGGDTGGGGGRDRGGEEEEDEEEEEEEEEDDGFIKKTKKDKKKKKKK | 36100 |
| PKSRPKKAKEEAVATGALGATGVVPEKRKRGRPRKIQPPIDGVALVAPPVAAP | 51700 |
